Source: patent US20210275641A1 (SYNTHEKINE, published 2021)

T1: human high affinity trimeric IL-2 receptor (CD25/CD122/CD132) (human, UniProt P01589 22-272; P14784 27-551; P31785 23-369)
T1 sequence 1: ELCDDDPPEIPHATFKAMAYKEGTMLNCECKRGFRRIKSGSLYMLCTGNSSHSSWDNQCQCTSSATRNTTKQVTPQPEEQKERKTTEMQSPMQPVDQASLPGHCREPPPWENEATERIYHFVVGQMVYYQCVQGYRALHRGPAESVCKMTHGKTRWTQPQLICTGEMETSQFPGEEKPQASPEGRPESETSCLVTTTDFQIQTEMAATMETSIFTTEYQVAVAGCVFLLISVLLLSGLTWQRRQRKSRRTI
T1 sequence 2: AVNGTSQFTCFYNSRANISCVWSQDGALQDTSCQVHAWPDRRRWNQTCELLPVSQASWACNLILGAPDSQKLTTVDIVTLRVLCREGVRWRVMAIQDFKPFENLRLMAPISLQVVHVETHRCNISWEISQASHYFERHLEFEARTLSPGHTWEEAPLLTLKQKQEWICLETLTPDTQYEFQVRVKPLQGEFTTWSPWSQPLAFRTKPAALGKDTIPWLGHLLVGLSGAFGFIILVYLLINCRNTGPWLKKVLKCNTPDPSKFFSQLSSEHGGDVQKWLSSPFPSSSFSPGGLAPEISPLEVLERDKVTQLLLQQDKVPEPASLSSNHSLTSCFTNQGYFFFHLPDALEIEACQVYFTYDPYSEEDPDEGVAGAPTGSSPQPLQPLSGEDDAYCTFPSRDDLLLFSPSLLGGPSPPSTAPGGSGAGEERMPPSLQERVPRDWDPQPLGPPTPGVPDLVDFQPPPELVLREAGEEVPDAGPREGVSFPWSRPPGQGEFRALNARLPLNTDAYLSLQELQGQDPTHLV
T1 sequence 3: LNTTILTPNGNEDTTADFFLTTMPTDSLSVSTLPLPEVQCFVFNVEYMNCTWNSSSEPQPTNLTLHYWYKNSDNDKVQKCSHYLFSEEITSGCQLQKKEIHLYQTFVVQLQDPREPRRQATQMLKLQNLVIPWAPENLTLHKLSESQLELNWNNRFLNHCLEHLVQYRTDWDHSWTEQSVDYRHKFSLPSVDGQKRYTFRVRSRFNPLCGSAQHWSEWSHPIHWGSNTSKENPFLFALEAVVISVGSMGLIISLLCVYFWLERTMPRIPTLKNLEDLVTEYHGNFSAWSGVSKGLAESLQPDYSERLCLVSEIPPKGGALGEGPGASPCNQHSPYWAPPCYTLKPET


Biological target: T1, human high affinity trimeric IL-2 …
Experiment: cell-based or functional assay

| pSTAT5 ratio YT CD25/YT, dilution factor 2, lower table | pSTAT5 ratio YT CD25/YT, dilution factor 4, lower table | pSTAT5 ratio YT CD25/YT, dilution factor 8, lower table | pSTAT5 ratio YT CD25/YT, dilution factor 16, lower table | pSTAT5 ratio YT CD25/YT, dilution factor 32, lower table | pSTAT5 ratio YT CD25/YT, dilution factor 64, lower table | pSTAT5 ratio YT CD25/YT, dilution factor 128, lower table | Binder |
| --- | --- | --- | --- | --- | --- | --- | --- |
| 0.6 | 0.8 | 1.1 | 1.4 | 2.3 | 3.9 | 5.1 | RMH (ligand) cytokine: APTSSSTKKTQLQLEHLRLDLMMILNGINNYKNPKLTRMLTFKFYMPKKATELKHLQCLEEELKPLEEVLNLAQSKNFHLRPRDLISNINVIVLELKGSETTFMCEYADETATIVEFLNRWITFCHSIISTLT |
| 0.8 | 0.8 | 1.2 | 2 | 3 | 5 | 9.1 | RWH (ligand) cytokine: APTSSSTKKTQLQLEHLRLDLWMILNGINNYKNPKLTRMLTFKFYMPKKATELKHLQCLEEELKPLEEVLNLAQSKNFHLRPRDLISNINVIVLELKGSETTFMCEYADETATIVEFLNRWITFCHSIISTLT |
| 0.6 | 0.8 | 1.1 | 2.1 | 3.4 | 5.5 | 6.9 | RGH (ligand) cytokine: APTSSSTKKTQLQLEHLRLDLGMILNGINNYKNPKLTRMLTFKFYMPKKATELKHLQCLEEELKPLEEVLNLAQSKNFHLRPRDLISNINVIVLELKGSETTFMCEYADETATIVEFLNRWITFCHSIISTLT |
| 1 | 0.9 | 1.1 | 1.8 | 2.8 | 5 | 6.8 | RSH (ligand) cytokine: APTSSSTKKTQLQLEHLRLDLSMILNGINNYKNPKLTRMLTFKFYMPKKATELKHLQCLEEELKPLEEVLNLAQSKNFHLRPRDLISNINVIVLELKGSETTFMCEYADETATIVEFLNRWITFCHSIISTLT |
| 0.6 | 0.7 | 0.8 | 1.2 | 1.4 | 2.3 | 3.7 | RAH (ligand) cytokine: APTSSSTKKTQLQLEHLRLDLAMILNGINNYKNPKLTRMLTFKFYMPKKATELKHLQCLEEELKPLEEVLNLAQSKNFHLRPRDLISNINVIVLELKGSETTFMCEYADETATIVEFLNRWITFCHSIISTLT |
| 0.9 | 0.9 | 1.4 | 1.9 | 3.3 | 5.3 | 8 | RVH (ligand) cytokine: APTSSSTKKTQLQLEHLRLDLVMILNGINNYKNPKLTRMLTFKFYMPKKATELKHLQCLEEELKPLEEVLNLAQSKNFHLRPRDLISNINVIVLELKGSETTFMCEYADETATIVEFLNRWITFCHSIISTLT |

More lines, now with the values behind:

| Binder | pSTAT5 ratio YT CD25/YT, dilution factor 2, lower table | pSTAT5 ratio YT CD25/YT, dilution factor 4, lower table | pSTAT5 ratio YT CD25/YT, dilution factor 8, lower table | pSTAT5 ratio YT CD25/YT, dilution factor 16, lower table | pSTAT5 ratio YT CD25/YT, dilution factor 32, lower table | pSTAT5 ratio YT CD25/YT, dilution factor 64, lower table | pSTAT5 ratio YT CD25/YT, dilution factor 128, lower table |
| --- | --- | --- | --- | --- | --- | --- | --- |
| NEH (ligand) cytokine: APTSSSTKKTQLQLEHLNLDLEMILNGINNYKNPKLTRMLTFKFYMPKKATELKHLQCLEEELKPLEEVLNLAQSKNFHLRPRDLISNINVIVLELKGSETTFMCEYADETATIVEFLNRWITFCHSIISTLT | 0.9 | 1.1 | 1.8 | 2.6 | 5.1 | 7.9 | 11.9 |
| TEH (ligand) cytokine: APTSSSTKKTQLQLEHLTLDLEMILNGINNYKNPKLTRMLTFKFYMPKKATELKHLQCLEEELKPLEEVLNLAQSKNFHLRPRDLISNINVIVLELKGSETTFMCEYADETATIVEFLNRWITFCHSIISTLT | 0.5 | 0.6 | 0.9 | 1.3 | 1.9 | 3.3 | 5.2 |
| DEH (ligand) cytokine: APTSSSTKKTQLQLEHLDLDLEMILNGINNYKNPKLTRMLTFKFYMPKKATELKHLQCLEEELKPLEEVLNLAQSKNFHLRPRDLISNINVIVLELKGSETTFMCEYADETATIVEFLNRWITFCHSIISTLT | 0.9 | 2 | 4.2 | 7.5 | 8.2 | 10.6 | 9.9 |
| RKH (ligand) cytokine: APTSSSTKKTQLQLEHLRLDLKMILNGINNYKNPKLTRMLTFKFYMPKKATELKHLQCLEEELKPLEEVLNLAQSKNFHLRPRDLISNINVIVLELKGSETTFMCEYADETATIVEFLNRWITFCHSIISTLT | 1 | 1.1 | 1.8 | 3 | 5.5 | 8.1 | 11 |
| RLH (ligand) cytokine: APTSSSTKKTQLQLEHLRLDLLMILNGINNYKNPKLTRMLTFKFYMPKKATELKHLQCLEEELKPLEEVLNLAQSKNFHLRPRDLISNINVIVLELKGSETTFMCEYADETATIVEFLNRWITFCHSIISTLT | 0.8 | 1.1 | 1.5 | 2.5 | 3.3 | 4.9 | 6.7 |
| RFH (ligand) cytokine: APTSSSTKKTQLQLEHLRLDLFMILNGINNYKNPKLTRMLTFKFYMPKKATELKHLQCLEEELKPLEEVLNLAQSKNFHLRPRDLISNINVIVLELKGSETTFMCEYADETATIVEFLNRWITFCHSIISTLT | 0.7 | 0.8 | 1.3 | 2.5 | 4.3 | 7.4 | 10.6 |
